Data published in patent publication US20090074790A1, “Methods for measuring transforming growth factor beta (TGF-beta) receptor signaling activity and uses thereof” (priority 2004, published 2009).

Target: TGFβ type I receptor (TβR-I) on human cells (human) (UniProt P36897)
Assay: cell-based or functional assay

TGFβ type I receptor (TβR-I) on human cells (human), sequence (P36897 34-503): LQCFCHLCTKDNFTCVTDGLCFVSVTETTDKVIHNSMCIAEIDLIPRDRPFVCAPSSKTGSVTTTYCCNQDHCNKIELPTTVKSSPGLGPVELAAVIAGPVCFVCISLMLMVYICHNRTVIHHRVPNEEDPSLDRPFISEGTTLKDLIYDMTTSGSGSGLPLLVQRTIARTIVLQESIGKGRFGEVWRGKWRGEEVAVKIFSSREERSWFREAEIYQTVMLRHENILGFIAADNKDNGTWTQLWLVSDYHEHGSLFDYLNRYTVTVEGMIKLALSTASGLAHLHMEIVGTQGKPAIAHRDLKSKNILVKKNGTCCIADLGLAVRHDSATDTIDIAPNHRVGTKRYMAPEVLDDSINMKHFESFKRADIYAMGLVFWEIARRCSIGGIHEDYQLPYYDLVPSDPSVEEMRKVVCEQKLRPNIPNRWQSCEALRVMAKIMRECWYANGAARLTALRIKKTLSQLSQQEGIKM

How did the growth inhibition of human keratinocytes turn out when “TGFβ (exogenous, added to human keratinocyte cultures) (ligand)” was run?
Its growth inhibition of human keratinocytes is 5 pM.
